This note sets out measurements from patent publication US20240018256A1 (JUNO THERAPEUTICS, published 2024).

Experiment [1] concerns the target T1, human CD19 (human, UniProt P15391 20-556).
T1 sequence: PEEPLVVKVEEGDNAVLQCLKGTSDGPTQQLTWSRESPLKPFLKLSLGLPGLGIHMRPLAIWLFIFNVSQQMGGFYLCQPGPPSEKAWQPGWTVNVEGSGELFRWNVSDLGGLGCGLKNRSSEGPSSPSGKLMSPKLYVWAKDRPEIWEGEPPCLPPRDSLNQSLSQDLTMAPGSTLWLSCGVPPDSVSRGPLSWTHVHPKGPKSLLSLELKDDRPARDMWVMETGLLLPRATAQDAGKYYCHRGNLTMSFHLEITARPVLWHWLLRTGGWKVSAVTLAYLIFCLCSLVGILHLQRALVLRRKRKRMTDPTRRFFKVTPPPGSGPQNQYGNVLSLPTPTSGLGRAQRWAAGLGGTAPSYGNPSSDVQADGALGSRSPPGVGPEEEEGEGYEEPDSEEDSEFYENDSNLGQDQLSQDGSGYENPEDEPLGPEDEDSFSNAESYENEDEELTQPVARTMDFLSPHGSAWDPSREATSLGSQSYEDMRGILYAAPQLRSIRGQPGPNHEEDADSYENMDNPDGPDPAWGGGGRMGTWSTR
In words: flow cytometry on CD19-expressing cells (n = 1). The source says: (§1) Various clones were titrated and their binding affinity (EC50) to various CD19-expressing cells assessed by flow cytometry.

Experiment [2] addresses T1, human CD19. In words: flow cytometry competition for binding with FMC63 (n = 1). For orientation: A flow cytometer gives signals particle by particle.
Experiment [3] deals with T1, human CD19. In words: flow cytometry competition for binding with FMC63, summary (n = 1).
Experiment [4] concerns the target T1, human CD19. Description: flow cytometry, scFv titrated on CD19-expressing K562 cells (FIG. 4, one plate).
The target in experiment [5] is T1, human CD19. Description: flow cytometry on CD19-expressing cells, summary (n = 1).
The target of experiment [6] is T1, human CD19. Description: flow cytometry, scFv titrated on CD19-expressing K562 cells (FIG. 3B).
The target in experiment [7] is T1, human CD19. Description: flow cytometry competition with labeled FMC63 IgG on CD19-expressing cells (FIG. 5B). How it is done:
(§2) Competition binding assays were performed to assess competition of various antibodies for binding to CD19-expressing cells.

Experiment [8] deals with T1, human CD19. In words: flow cytometry, scFv titrated on CD19-expressing K562 cells (FIG. 3A).
Experiment [9] addresses T1, human CD19. Description: flow cytometry on CD19-expressing cells, summary (n = 7).
The target in experiment [10] is T1, human CD19. In words: flow cytometry, scFv titrated on CD19-expressing K562 cells (FIG. 4, another plate).
Experiment [11] has as its target T1, human CD19. In words: flow cytometry competition for binding with FMC63, summary (n = 3). The procedure: as §2
In experiment [12] the target is T1, human CD19. Description: flow cytometry on CD19-expressing cells, summary (n = 5).
The target of experiment [13] is T1, human CD19. In words: flow cytometry competition for binding with FMC63 (n = 3).
Experiment [14] concerns the target T1, human CD19. In words: flow cytometry on CD19-expressing cells (n = 7).
Description: as §1

The target of experiment [15] is T1, human CD19. In words: flow cytometry competition for binding with FMC63 (n = 2).
The target in experiment [16] is T1, human CD19. In words: flow cytometry competition for binding with FMC63, summary (n = 2).
Experiment [17] concerns the target T1, human CD19. In words: flow cytometry on CD19-expressing cells (n = 5).
Experiment [18] addresses T1, human CD19. Description: flow cytometry on CD19-expressing cells, summary.
In experiment [19] the target is T1, human CD19. In words: flow cytometry, HIS-tagged scFv bacterial supernatant on CD19-transfected HEK293 cells (FIG. 8C). The source says: A third scFv library was generated by shuffling the VH sequences from the selection in (a) with the VL sequences resulting from the selection in (b). […] Binding by the selected scFv clones to CD19-expressing cells was confirmed by flow cytometry using bacterially-produced supernatant. The selected scFv pools were cloned into E. coli expression vectors and produced as HIS-tagged scFvs. Binding of individual clones to CD19-transfected HEK293 cells was detected with anti-HIS-Alexa647 conjugate by flow cytometry.

Experiment [20] addresses T1, human CD19. Description: flow cytometry on Ramos cells; probe concentration said to be about its EC50.
Experiment [21] addresses T1, human CD19. In words: flow cytometry, scFv titrated on CD19-expressing K562 cells (FIG. 3C).
In experiment [22] the target is T1, human CD19. Description: flow cytometry on CD19-expressing cells (n = 4).
Experiment [23] addresses T1, human CD19. Description: flow cytometry competition for binding with FMC63 (n = 6).
For experiment [24], the target named is T1, human CD19. In words: flow cytometry, in vitro-translated FLAG-tagged scFv on CD19-expressing vs mock transfected K562 cells (FIG. 8D).

B1: Clone 5 scFv (scFv)
scFv: EVQLVESGGGLVQPGRSLRLSCAASGFTFDDYAMHWVRQAPGKGLEWVSGISWNSGRIGYADSVKGRFTISRDNAKNSLFLQMNSLRAEDTAVYYCARDQGYHYYDSAEHAFDIWGQGTMVTVSSGGGGSGGGGSGGGGSSYELTQDPAVSVALGQTVRITCQGDSLRSYYASWYQQKPGQAPVLVIYDKNNRPSGIPDRFSGSSSGNTASLTITGAQAEDEADYYCNSRDSSGNNWVFGGGTKLTVL
notes: Human scFv, VH-(G4S)3-VL
A word on the EC50: it is the midpoint of the concentration-response curve. The low end stands for higher potency in that assay, the high end for lower potency in that assay. As usually defined, the IC50 is the concentration that gives 50% inhibition. Higher therefore signals lower potency. Regarding B1, the EC50 in the experiment with human CD19 [1], with human CD19 [4] and with human CD19 [5] was 15.8 nM throughout. Further, the IC50 in the experiment with human CD19 [2] and with human CD19 [3] was 50 nM in each case.

B2: Clone 18 scFv (scFv)
scFv: EVQLVESGGGLVQPGRSLRLSCAASGFTFDDYAMHWVRQAPGKGLEWVSGISWNSGRIGYADSVKGRFTISRDNAKNSLFLQMNSLRAEDTAVYYCARDQGYHYYDSAEHAFDIWGQGTVVTVSSGGGGSGGGGSGGGGSQSALTQPRSVSGFPGQSVTISCTGTTSDDVSWYQQHPGKAPQLMLYDVSKRPSGVPHRFSGSRSGRAASLIISGLQTEDEADYFCCSYAGRYNSVLFGGGTKLTVL
notes: Human scFv, VH-(G4S)3-VL
Turning to B2, the EC50 with human CD19 [6] came out at 7.1 nM; with human CD19 [8], 3.79 nM; with human CD19 [9], 4.1 nM; in the experiment with human CD19 [10] it was 3.11 nM; in the experiment with human CD19 [4] it was 4.79 nM. For the same molecule, the figures for the IC50 with human CD19 [7] and in the experiment with human CD19 [11] were 24 nM and 20.1 nM, respectively.

B3: Clone 18B scFv (scFv)
scFv: EVQLVESGGGLVQPGRSLRLSCAASGFTFDDYAMHWVRQAPGKGLEWVSGISWNSGRIGYADSVKGRFTISRDNAKNSLFLQMNSLRAEDTAVYYCARDQGYHYYDSAEHAFDIWGQGTVVTVSSGGGGSGGGGSGGGGSQSALTQPRSVSGFPGQSVTISCTGTTSDDVSWYQQHPGKAPQLMLYDVSKRPSGVPHRFSGSRSGRAASLIISGLQTEDEADYFCSSYAGRYNSVLFGGGTKLTVL
notes: Clone 18 with cysteine to serine at Kabat position 89 of VL; also called germline variant of clone 18
As to B3, the values for the EC50 with human CD19 [12], with human CD19 [6] and in the experiment with human CD19 [14] were 5.4 nM, 9.3 nM and 4.9 nM, respectively. Besides, the IC50 with human CD19 [3] turned out to be 28 nM; in the experiment with human CD19 [13], 32.9 nM.

B4: Clone 17 scFv (scFv)
scFv: EVQLVESGGGLVQPGRSLRLSCAASGFTFDDYAMHWVRQAPGKGLEWVSGISWNSGRIGYADSVKGRFTISRDNAKNSLFLQMNSLRAEDTAVYYCARDQGYHYYDSAEHAFDIWGQGTMVTVSSGGGGSGGGGSGGGGSQSALTQPASVSGSPGQSITIFCTGTSSDVGGYNYVSWYQQLPGTAPKLLIYSNNQRPSGVPDRFSGSKSGTSASLAISGLRSEDEADYYCAAWDDSLSVVFGGGTKLTVL
notes: Human scFv, VH-(G4S)3-VL
On to B4, for which the IC50 with human CD19 [15] and in the experiment with human CD19 [16] was 35.4 nM in each case. Besides, the EC50 in the experiment with human CD19 [8] is 14.9 nM; with human CD19 [17] it was 11.6 nM; in the experiment with human CD19 [18], 11.7 nM; with human CD19 [4] it was 8.32 nM.

B5: Clone 440 scFv (scFv)
scFv: QVQLVESGGGLVQPGRSLRLSCAASGFTFDDYAMHWVRQAPGKGLEWVSGISWNSGRIGYADSVKGRFTISRDNAKNSLFLQMNSLRAEDTAVYYCARDQGYHYYDSAEHAFDIWGQGTVVTVSSGGGGSGGGGSGGGGSQSALTQPASVSGSPGHSITISCTGTRSDVGGFDYVSWYQHNPGKAPKLIIYDVTKRPSGVSNRFSGAKSGITASLTISGLQAEDEADYYCTSYRPGPTFVFGTGTKLDIK
notes: HIS- or FLAG-tagged
On to B5, for which, in the experiment with human CD19 [19], the binding result is recorded as “binds”.

B6: SJ25C1 IgG1 (antibody, V domains shown)
VH: EVKLQQSGAELVRPGSSVKISCKASGYAFSSYWMNWVKQRPGQGLEWIGQIYPGDGDTNYNGKFKGQATLTADKSSSTAYMQLSGLTSEDSAVYFCARKTISSVVDFYFDYWGQGTTVTVSS
VL: DIELTQSPKFMSTSVGDRVSVTCKASQNVGTNVAWYQQKPGQSPKPLIYSATYRNSGVPDRFTGSGSGTDFTLTITNVQSKDLADYFCQQYNRYPYTSGGGTKLEI
notes: Murine IgG1, FITC-labeled in the assay; also called FITC-labeled SJ25C1
As for B6, the EC50 with human CD19 [20] is around 0.5 nM.

B7: Clone 76 scFv (scFv)
scFv: EVQLVESGGGLVQPGRSLRLSCAASGFTFDDYAMHWVRQAPGKGLEWVSGISWNSGRIGYADSVKGRFTISRDNAKNSLFLQMNSLRAEDTAVYYCARDQGYHYYDSAEHAFDIWGQGTVVTVSSGGGGSGGGGSGGGGSQSVLTQPPSVSAAPGQEVTISCSGSSSNIGNNYVSWYQQLPGTAPKLLIYDNDKRPSGIPDRFSGSKSGTSATLGITGLQTGDEADYYCGTWDGNLSAVFGGGTKVTVL
notes: Human scFv, VH-(G4S)3-VL
For B7, the EC50 in the experiment with human CD19 [6] was found to be 7.9 nM; in the experiment with human CD19 [17], 7 nM; with human CD19 [21], 8.8 nM; with human CD19 [18], 8.04 nM. Also, the IC50 in the experiment with human CD19 [15] and with human CD19 [16] was 18.2 nM throughout.

B8: Clone 448 scFv (scFv)
scFv: QVQLVESGGGLVQPGRSLRLSCAASGFTFDDYAMHWVRQAPGKGLEWVSGISWNSGRIGYADSVKGRFTISRDNAKNSLFLQMNSLRAEDTAVYYCARDQGYHYYDSAEHAFDIWGQGTVVTVSSGGGGSGGGGSGGGGSQSALTQPASVSGSPGQSITISCTGTSSDLGGYNYVSWYQHRPGKAPKLIIYDVTVRPSGVSDRFSGSKSGNTASLTISGLQAEDEADYYCGSYTSSSTLLWVFGGGTKLDIK
notes: HIS- or FLAG-tagged
As for B8, the binding result in the experiment with human CD19 [19] is listed as “binds”.

B9: Clone 488 scFv (scFv)
scFv: EVQLVQSGGGLVQPGRSLRLSCAASGFTFDDYAMHWVRQAPGKGLEWVSGISWNSGSIGYADSVKGRFTISRDNAKNSLYLQMNSLRAEDTAVYYCARDQGYHYYDSAEHAFDIWGQGTVVTVSSGGGGSGGGGSGGGGSEIVLTQSPATLSLSPGETATLSCRASQSINHYLAWYQQKPGQAPRLLIYDASNRATGIPARFSGSGSGTDFTLTISSLEPEDFATYYCQQSYSHPRMYTFGQGTKLDIK
notes: Human scFv
B9 displayed an EC50 in the experiment with human CD19 [22] of 2.9 nM. Besides, the IC50 in the experiment with human CD19 [23] came to 6.1 nM.

B10: Clone 213 scFv (scFv)
scFv: QVQLVQSGGGVVQPGRSLRLSCAASGFTFDDYAMHWVRQAPGKGLEWVSGISWNSGSIGYADSVKGRFTISRDNAKNSLYLQMNSLRAEDTAVYYCARDQGYHYYDSAEHAFDIWGQGTVVTVSSGGGGSGGGGSGGGGSEIVLTQSPATLSLSPGETATLSCRASQSINHYLAWYQQKPGQAPRLLIYDASNRATGIPARFSGSGSGTDFTLTISSLEPEDFATYYCQQSYSHPRMYTFGQGTKLEIK
On to B10, for which the binding result with human CD19 [24] was “binds”.
